From IntAct's records for PubMed 31474574

B1: Splicing factor 3B subunit 1 (Homo sapiens), O75533 (parent)
chain: MAKIAKTHEDIEAQIREIQGKKAALDEAQGVGLDSTGYYDQEIYGGSDSRFAGYVTSIAATELEDDDDDYSSSTSLLGQKKPGYHAPVALLNDIPQSTEQYDPFAEHRPPKIADREDEYKKHRRTMIISPERLDPFADGGKTPDPKMNARTYMDVMREQHLTKEEREIRQQLAEKAKAGELKVVNGAAASQPPSKRKRRWDQTADQTPGATPKKLSSWDQAETPGHTPSLRWDETPGRAKGSETPGATPGSKIWDPTPSHTPAGAATPGRGDTPGHATPGHGGATSSARKNRWDETPKTERDTPGHGSGWAETPRTDRGGDSIGETPTPGASKRKSRWDETPASQMGGSTPVLTPGKTPIGTPAMNMATPTPGHIMSMTPEQLQAWRWEREIDERNRPLSDEELDAMFPEGYKVLPPPAGYVPIRTPARKLTATPTPLGGMTGFHMQTEDRTMKSVNDQPSGNLPFLKPDDIQYFDKLLVDVDESTLSPEEQKERKIMKLLLKIKNGTPPMRKAALRQITDKAREFGAGPLFNQILPLLMSPTLEDQERHLLVKVIDRILYKLDDLVRPYVHKILVVIEPLLIDEDYYARVEGREIISNLAKAAGLATMISTMRPDIDNMDEYVRNTTARAFAVVASALGIPSLLPFLKAVCKSKKSWQARHTGIKIVQQIAILMGCAILPHLRSLVEIIEHGLVDEQQKVRTISALAIAALAEAATPYGIESFDSVLKPLWKGIRQHRGKGLAAFLKAIGYLIPLMDAEYANYYTREVMLILIREFQSPDEEMKKIVLKVVKQCCGTDGVEANYIKTEILPPFFKHFWQHRMALDRRNYRQLVDTTVELANKVGAAEIISRIVDDLKDEAEQYRKMVMETIEKIMGNLGAADIDHKLEEQLIDGILYAFQEQTTEDSVMLNGFGTVVNALGKRVKPYLPQICGTVLWRLNNKSAKVRQQAADLISRTAVVMKTCQEEKLMGHLGVVLYEYLGEEYPEVLGSILGALKAIVNVIGMHKMTPPIKDLLPRLTPILKNRHEKVQENCIDLVGRIADRGAEYVSAREWMRICFELLELLKAHKKAIRRATVNTFGYIAKAIGPHDVLATLLNNLKVQERQNRVCTTVAIAIVAETCSPFTVLPALMNEYRVPELNVQNGVLKSLSFLFEYIGEMGKDYIYAVTPLLEDALMDRDLVHRQTASAVVQHMSLGVYGFGCEDSLNHLLNYVWPNVFETSPHVIQAVMGALEGLRVAIGPCRMLQYCLQGLFHPARKVRDVYWKIYNSIYIGSQDALIAHYPRIYNDDKNTYIRYELDYIL
partner: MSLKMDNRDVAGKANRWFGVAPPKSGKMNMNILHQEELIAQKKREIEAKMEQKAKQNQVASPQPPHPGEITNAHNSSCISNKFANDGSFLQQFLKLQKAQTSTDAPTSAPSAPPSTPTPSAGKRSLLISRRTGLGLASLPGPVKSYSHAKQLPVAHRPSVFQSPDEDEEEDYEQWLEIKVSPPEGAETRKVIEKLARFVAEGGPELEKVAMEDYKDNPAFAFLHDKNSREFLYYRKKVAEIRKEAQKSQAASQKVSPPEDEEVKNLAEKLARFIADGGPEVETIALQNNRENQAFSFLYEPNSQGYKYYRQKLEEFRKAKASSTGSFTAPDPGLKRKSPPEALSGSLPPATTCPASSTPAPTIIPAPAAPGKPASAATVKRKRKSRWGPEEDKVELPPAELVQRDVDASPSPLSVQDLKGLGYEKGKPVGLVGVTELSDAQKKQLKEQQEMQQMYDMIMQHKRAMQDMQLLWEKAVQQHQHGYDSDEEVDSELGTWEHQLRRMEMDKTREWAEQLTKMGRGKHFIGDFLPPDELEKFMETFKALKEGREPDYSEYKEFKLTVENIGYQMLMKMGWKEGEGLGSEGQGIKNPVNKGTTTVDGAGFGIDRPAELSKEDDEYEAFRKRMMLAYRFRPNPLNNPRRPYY
B2: SURP and G-patch domain-containing protein 1 (Homo sapiens), Q8IWZ8 (parent)
chain: B1 partner

Variants of: B1
Settings: with sugp1_human SUGP1, Q8IWZ8

Variant	effect of a mutation on the interaction
H662Q	disrupting interaction strength
E622D	disrupting interaction strength
R625C	disrupting interaction strength
K666N	decreasing interaction strength
K700E	disrupting interaction strength

Variants of: B1
Settings: with sugp1_human SUGP1, Q8IWZ8
Remark: another data set of the same source

Variant	effect of a mutation on the interaction
K700E	decreasing interaction strength

Variants of: B2
Settings: with U2AF2, P26368
U2AF2, P26368, sequence (P26368 whole entry): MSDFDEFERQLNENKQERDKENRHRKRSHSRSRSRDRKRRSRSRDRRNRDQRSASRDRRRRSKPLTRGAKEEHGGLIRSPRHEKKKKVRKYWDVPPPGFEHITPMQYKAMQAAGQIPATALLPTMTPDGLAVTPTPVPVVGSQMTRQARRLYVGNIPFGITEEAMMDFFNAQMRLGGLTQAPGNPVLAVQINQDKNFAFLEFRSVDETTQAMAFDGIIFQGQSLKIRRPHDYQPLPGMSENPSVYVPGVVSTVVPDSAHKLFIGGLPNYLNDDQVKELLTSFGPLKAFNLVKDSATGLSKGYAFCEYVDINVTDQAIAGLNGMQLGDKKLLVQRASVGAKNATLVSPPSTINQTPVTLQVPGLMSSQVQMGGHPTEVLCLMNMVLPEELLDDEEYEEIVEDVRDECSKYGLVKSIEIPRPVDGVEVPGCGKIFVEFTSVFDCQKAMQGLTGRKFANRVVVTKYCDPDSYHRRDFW

Variant	effect of a mutation on the interaction
W387A	disrupting interaction strength
